Experimental data taken from paper PMC5921835.

Substrate: C/C(=C\COP(=O)(O)OP(=O)(O)O)CC[C@@H]1[C@@]2(C)CCCC(C)(C)[C@@H]2CC[C@@]1(C)O
Assay: steady-state kinetics
Assay type: biochemical, Salvia sclarea
Conditions: mean ± SE of three experiments; assay conditions only in the supplement

Protein	Km [µM]	kcat [s⁻¹]	kcat/Km [M⁻¹ s⁻¹]
sclareol synthase from Salvia sclarea (SsSS) (Salvia sclarea) (protein) AKMKENFKREDDKFPTTTTLRSEDIPSNLCIIDTLQRLGVDQFFQYEINTILDNTFRLWQEKHKVIYGNVTTHAMAFRLLRVKGYEVSSEELAPYGNQEAVSQQTNDLPMIIELYRAANERIYEEERSLEKILAWTTIFLNKQVQDNSIPDKKLHKLVEFYLRNYKGITIRLGARRNLELYDMTYYQALKSTNRFSNLCNEDFLVFAKQDFDIHEAQNQKGLQQLQRWYADCRLDTLNFGRDVVIIANYLASLIIGDHAFDYVRLAFAKTSVLVTIMDDFFDCHGSSQECDKIIELVKEWKENPDAEYGSEELEILFMALYNTVNELAERARVEQGRSVKEFLVKLWVEILSAFKIELDTWSNGTQQSFDEYISSSWLSNGSRLTGLLTMQFVGVKLSDEMLMSEECTDLARHVCMVGRLLNDVCSSEREREENIAGKSYSILLATEKDGRKVSEDEAIAEINEMVEYHWRKVLQIVYKKESILPRRCKDVFLEMAKGTFYAYGINDELTSPQQSKEDMKSFVF	7 ± 2	0.53 ± 0.04	76000
sclareol synthase from Salvia sclarea (SsSS) (Salvia sclarea; N431Q) (protein) AKMKENFKREDDKFPTTTTLRSEDIPSNLCIIDTLQRLGVDQFFQYEINTILDNTFRLWQEKHKVIYGNVTTHAMAFRLLRVKGYEVSSEELAPYGNQEAVSQQTNDLPMIIELYRAANERIYEEERSLEKILAWTTIFLNKQVQDNSIPDKKLHKLVEFYLRNYKGITIRLGARRNLELYDMTYYQALKSTNRFSNLCNEDFLVFAKQDFDIHEAQNQKGLQQLQRWYADCRLDTLNFGRDVVIIANYLASLIIGDHAFDYVRLAFAKTSVLVTIMDDFFDCHGSSQECDKIIELVKEWKENPDAEYGSEELEILFMALYNTVNELAERARVEQGRSVKEFLVKLWVEILSAFKIELDTWSNGTQQSFDEYISSSWLSQGSRLTGLLTMQFVGVKLSDEMLMSEECTDLARHVCMVGRLLNDVCSSEREREENIAGKSYSILLATEKDGRKVSEDEAIAEINEMVEYHWRKVLQIVYKKESILPRRCKDVFLEMAKGTFYAYGINDELTSPQQSKEDMKSFVF	10 ± 1	0.47 ± 0.02	47000
sclareol synthase from Salvia sclarea (SsSS) (Salvia sclarea; N431I) (protein) AKMKENFKREDDKFPTTTTLRSEDIPSNLCIIDTLQRLGVDQFFQYEINTILDNTFRLWQEKHKVIYGNVTTHAMAFRLLRVKGYEVSSEELAPYGNQEAVSQQTNDLPMIIELYRAANERIYEEERSLEKILAWTTIFLNKQVQDNSIPDKKLHKLVEFYLRNYKGITIRLGARRNLELYDMTYYQALKSTNRFSNLCNEDFLVFAKQDFDIHEAQNQKGLQQLQRWYADCRLDTLNFGRDVVIIANYLASLIIGDHAFDYVRLAFAKTSVLVTIMDDFFDCHGSSQECDKIIELVKEWKENPDAEYGSEELEILFMALYNTVNELAERARVEQGRSVKEFLVKLWVEILSAFKIELDTWSNGTQQSFDEYISSSWLSIGSRLTGLLTMQFVGVKLSDEMLMSEECTDLARHVCMVGRLLNDVCSSEREREENIAGKSYSILLATEKDGRKVSEDEAIAEINEMVEYHWRKVLQIVYKKESILPRRCKDVFLEMAKGTFYAYGINDELTSPQQSKEDMKSFVF	6 ± 1	0.38 ± 0.02	63000
